“And” between values parts separate entries of the source, which are not always exact repeats. Equal values may be shown once.

Assay [1] addresses Naegleria fowleri cystatin (recombinant, without signal presequence) (Naegleria fowleri (strain HB-1)). In words: SEC; analytical size-exclusion chromatography, Superdex 200 Increase 10/300 GL, 20 mM Tris-HCl, 150 mM NaCl, pH 7.5; mass from calibration with Gel Filtration Standard (Bio-Rad). A general note: In gel filtration, larger molecules generally elute earlier.
For assay [2], the target named is Cathepsin L holoenzyme from human liver (human).
Sequence of Cathepsin L holoenzyme from human liver (human) (P07711 18-333): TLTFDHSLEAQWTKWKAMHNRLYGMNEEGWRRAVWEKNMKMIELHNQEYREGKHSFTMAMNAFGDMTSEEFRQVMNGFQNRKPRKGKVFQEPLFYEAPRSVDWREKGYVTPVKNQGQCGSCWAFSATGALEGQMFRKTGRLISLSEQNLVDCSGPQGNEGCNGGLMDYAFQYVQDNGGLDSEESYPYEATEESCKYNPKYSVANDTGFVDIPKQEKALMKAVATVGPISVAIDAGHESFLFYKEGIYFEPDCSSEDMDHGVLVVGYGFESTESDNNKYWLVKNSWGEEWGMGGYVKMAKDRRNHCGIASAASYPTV
The target of assay [3] is Recombinant human cathepsin K holoenzyme (human) (UniProt P43235).
Sequence of Recombinant human cathepsin K holoenzyme (human) (P43235 16-329): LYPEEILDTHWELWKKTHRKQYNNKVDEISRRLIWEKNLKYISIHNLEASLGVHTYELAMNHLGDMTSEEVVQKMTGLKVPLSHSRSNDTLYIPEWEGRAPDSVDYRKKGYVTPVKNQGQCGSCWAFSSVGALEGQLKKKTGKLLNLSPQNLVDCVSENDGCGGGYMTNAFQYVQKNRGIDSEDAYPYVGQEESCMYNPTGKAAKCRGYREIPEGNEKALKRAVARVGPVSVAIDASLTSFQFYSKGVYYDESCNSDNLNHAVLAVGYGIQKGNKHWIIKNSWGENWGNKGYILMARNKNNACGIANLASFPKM

Broadly, the stoichiometry N is the number of molecules, sites or subunits per partner or assembly. As for “Naegleria fowleri cystatin (recombinant, without signal presequence) (natural protein)”, the stoichiometry N in assay [1] was 4 and 2. Moreover, the figures for the IC50 of inhibition of peptidase activity (Z-Phe-Arg-AMC cleavage), 50 nM enzyme, 5 nM – 2 µM Nf cystatin, pH 5.5 in assay [2] and in assay [3] were 517 nM and 31 nM, respectively.

(Values after PMC11964265.)
